Assay results from paper PMC7480387.

How the values were obtained:
[1] = system: T1, GST-SfbR (Streptomyces filipinensis DSM 40112), ORF:e6e403b8; experiment: EMSA; conditions: EMSA: 100 mM HEPES pH 7.6, 10 mM KCl, 5 mM MgCl2, 1 mM DTT, 1% Tween 20, 7.8 mM glutathione, 40 ug/ml poly[d(I-C)], 5% glycerol, 30 C, 10 min; 0.005 ng/ul …
T1 sequence: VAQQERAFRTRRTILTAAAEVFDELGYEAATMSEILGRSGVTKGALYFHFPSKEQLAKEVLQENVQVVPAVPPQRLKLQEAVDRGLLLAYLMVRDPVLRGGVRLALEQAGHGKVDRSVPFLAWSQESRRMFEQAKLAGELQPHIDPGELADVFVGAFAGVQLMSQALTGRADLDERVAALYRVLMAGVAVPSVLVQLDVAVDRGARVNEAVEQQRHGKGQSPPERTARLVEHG

[2] = system: T2, GST-SfbR2 (Streptomyces filipinensis DSM 40112), ORF:2e1db1fa; experiment: EMSA; conditions: EMSA: 100 mM HEPES pH 7.6, 10 mM KCl, 5 mM MgCl2, 1 mM DTT, 1% Tween 20, 7.8 mM glutathione, 40 ug/ml poly[d(I-C)], 5% glycerol, 30 C, 10 min; 0.005 ng/ul …
T2 sequence: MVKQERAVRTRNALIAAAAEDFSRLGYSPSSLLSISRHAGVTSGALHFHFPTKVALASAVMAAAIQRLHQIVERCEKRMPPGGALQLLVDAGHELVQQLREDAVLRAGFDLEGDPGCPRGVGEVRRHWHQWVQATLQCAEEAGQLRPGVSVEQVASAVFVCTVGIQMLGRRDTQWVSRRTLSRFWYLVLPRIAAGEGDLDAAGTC

GCGTGCTGCCCAGCCGTGCTGCAAAGCCGCCGAGTACTTCGATGTCCATCTCTCTCCCCCAGATCCGTACGCGCGGGGCCCGTCAGGCACGCGCGGGGTGTGGCGTAGCTCAGGGAACTCGGGACTTGCTTGACCACCAAATTAAACAGCATGGCCGGTTCTTTCTCCAGTGGAACCCGAGGATCCGTGCCGGCGCCGCCCGCGGCCCGCGCCGCGGGGCGCGGGTCCGCGGTCGGCGTCCTCGCAGGTCTGTCCGTGTGCCGGGGTGGTGTGC (double strand) [sfb7p]
binding [1]: binds | binding [2]: binds
